Target: Est1-(myc)13 (Saccharomyces cerevisiae (from context; not stated for this protein)) (UniProt P17214)
Assay: co-immunoprecipitation with anti-Rat1 peptide antibodies from extracts of yeast over-expressing Est1-(myc)13, probed for myc

Chain of UniProt P17214 (P17214 whole entry): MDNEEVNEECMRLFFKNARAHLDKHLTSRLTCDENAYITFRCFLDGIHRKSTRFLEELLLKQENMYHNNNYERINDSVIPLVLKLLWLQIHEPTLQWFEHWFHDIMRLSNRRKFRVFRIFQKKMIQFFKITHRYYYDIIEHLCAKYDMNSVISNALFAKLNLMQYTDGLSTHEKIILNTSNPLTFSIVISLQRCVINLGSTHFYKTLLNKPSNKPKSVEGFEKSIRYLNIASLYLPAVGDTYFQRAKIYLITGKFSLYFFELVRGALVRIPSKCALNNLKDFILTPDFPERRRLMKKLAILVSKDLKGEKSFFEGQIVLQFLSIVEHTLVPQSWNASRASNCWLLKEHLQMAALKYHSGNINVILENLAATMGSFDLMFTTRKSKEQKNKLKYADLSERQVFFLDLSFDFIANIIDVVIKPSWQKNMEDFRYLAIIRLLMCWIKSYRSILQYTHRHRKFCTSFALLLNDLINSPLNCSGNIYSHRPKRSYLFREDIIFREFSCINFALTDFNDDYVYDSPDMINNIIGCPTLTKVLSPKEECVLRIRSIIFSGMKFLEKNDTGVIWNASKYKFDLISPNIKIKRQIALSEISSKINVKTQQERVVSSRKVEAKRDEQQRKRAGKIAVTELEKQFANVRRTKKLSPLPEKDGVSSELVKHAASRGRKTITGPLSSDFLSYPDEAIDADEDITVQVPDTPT

“S. cerevisiae Rat1 protein (from UniProt Q02792 2-1006) (enzyme)” was tested, and the co-immunoprecipitation efficiency was 5%.
